Values belong to the molecule of their own block, whether it stands above or below them.
Tests used:
[1] = target: Strep-tagged mouse ANGPTL3 (angiopoietin-like 3), wild-type (mouse); experiment: native gel or EMSA; blue NativePAGE (Bis-Tris 3-12% gels, run at room temperature) of conditioned media, immunoblot with an antibody against ANGPTL3
[2] = target: Strep-tagged mouse ANGPTL3 (angiopoietin-like 3), wild-type (mouse); experiment: mass photometry; Refeyn TwoMP, ambient temperature, DPBS; ANGPTL3 purified from conditioned media by Strep-TactinXT affinity chromatography
[3] = target: mouse ANGPTL3 S220A-R221A (cleavage-resistant) (mouse); experiment: native gel or EMSA; blue NativePAGE (Bis-Tris 3-12% gels, run at room temperature) of conditioned media, immunoblot with an antibody against ANGPTL3
[4] = target: mouse ANGPTL3 S220A-R221A (cleavage-resistant) (mouse); experiment: mass photometry; Refeyn TwoMP, ambient temperature, DPBS; ANGPTL3 purified from conditioned media by Strep-TactinXT affinity chromatography
[5] = target: endogenous ANGPTL3 secreted from Huh7 cells (human (endogenous in Huh7)); experiment: native gel or EMSA; blue NativePAGE (Bis-Tris 3-12% gels, run at room temperature) of conditioned media, immunoblot with an antibody against ANGPTL3
[6] = target: ANGPTL3 of human serum (human (endogenous in serum)); experiment: SEC; Superdex 200 of pooled human serum, alone or spiked with conditioned media of recombinant wild-type or L124A human ANGPTL3 (L124A also run without serum); total ANGPTL3, trimeric ANGPTL3 and ANGPTL3/8 complexes in the fractions measured by dedicated immunoassays
[7] = Western blot of conditioned media; details: glycan lost; control: wild type
[8] = target: the molecule itself; experiment: SEC; Superdex 200 of pooled human serum, alone or spiked with conditioned media of recombinant wild-type or L124A human ANGPTL3 (L124A also run without serum); total ANGPTL3, trimeric ANGPTL3 and ANGPTL3/8 complexes in the fractions measured by dedicated immunoassays

stoichiometry N [1]: 3
percent present as homotrimer [2]: 58%
stoichiometry N [2]: 3
Molecule: Strep-tagged mouse ANGPTL3 (angiopoietin-like 3), wild-type (natural protein)

stoichiometry N [3]: 3
stoichiometry N [4]: 3
Molecule: mouse ANGPTL3 S220A-R221A (cleavage-resistant) (natural protein)

stoichiometry N [5]: 3
Molecule: endogenous ANGPTL3 secreted from Huh7 cells (natural protein)

stoichiometry N [6]: 3
Molecule: ANGPTL3 of human serum (natural protein)

B1: ANGPTL3: M116A-S117A (protein)
parent chain: MHTIKLFLFVVPLVIASRVDPDLSSFDSAPSEPKSRFAMLDDVKILANGLLQLGHGLKDFVHKTKGQINDIFQKLNIFDQSFYDLSLRTNEIKEEEKELRRTTSTLQVKNEEVKNMSVELNSKLESLLEEKTALQHKVRALEEQLTNLILSPAGAQEHPEVTSLKSFVEQQDNSIRELLQSVEEQYKQLSQQHMQIKEIEKQLRKTGIQEPSENSLSSKSRAPRTTPPLQLNETENTEQDDLPADCSAVYNRGEHTSGVYTIKPRNSQGFNVYCDTQSGSPWTLIQHRKDGSQDFNETWENYEKGFGRLDGEFWLGLEKIYAIVQQSNYILRLELQDWKDSKHYVEYSFHLGSHETNYTLHVAEIAGNIPGALPEHTDLMFSTWNHRAKGQLYCPESYSGGWWWNDICGENNLNGKYNKPRTKSRPERRRGIYWRPQSRKLYAIKSSKMMLQPTT
expression_or_secretion [7]: no change

B2: recombinant wild-type human ANGPTL3 (His-tagged) (natural protein, UniProt Q9Y5C1 17-460, looked up)
chain: SRIDQDNSSFDSLSPEPKSRFAMLDDVKILANGLLQLGHGLKDFVHKTKGQINDIFQKLNIFDQSFYDLSLQTSEIKEEEKELRRTTYKLQVKNEEVKNMSLELNSKLESLLEEKILLQQKVKYLEEQLTNLIQNQPETPEHPEVTSLKTFVEKQDNSIKDLLQTVEDQYKQLNQQHSQIKEIENQLRRTSIQEPTEISLSSKPRAPRTTPFLQLNEIRNVKHDGIPAECTTIYNRGEHTSGMYAIRPSNSQVFHVYCDVISGSPWTLIQHRIDGSQNFNETWENYKYGFGRLDGEFWLGLEKIYSIVKQSNYVLRIELEDWKDNKHYIEYSFYLGNHETNYTLHLVAITGNVPNAIPENKDLVFSTWDHKAKGHFNCPEGYSGGWWWHDECGENNLNGKYNKPRAKSKPERRRGLSWKSQNGRLYSIKSTKMLIHPTDSESFE
notes: angiopoietin-like 3 (ANGPTL3), human, secreted into the medium; also called WT human ANGPTL3; wild-type trimeric ANGPTL3; source: HEK293T, transient transfection (Fugene6), conditioned media
stoichiometry N [8]: 3

— PMC12867014, “Angiopoietin-like 3 monomers are abundant in human plasma but are unable to inhibit endothelial lipase” (JCI Insight, 2025)
